# From paper PMC3967969 (Molecular Biology of the Cell, 2014)
# T1: MEI-2, wild type (from MBP-TEV-MEI-2) (C. elegans, UniProt O44740 1-280)
# T1 sequence (looked up): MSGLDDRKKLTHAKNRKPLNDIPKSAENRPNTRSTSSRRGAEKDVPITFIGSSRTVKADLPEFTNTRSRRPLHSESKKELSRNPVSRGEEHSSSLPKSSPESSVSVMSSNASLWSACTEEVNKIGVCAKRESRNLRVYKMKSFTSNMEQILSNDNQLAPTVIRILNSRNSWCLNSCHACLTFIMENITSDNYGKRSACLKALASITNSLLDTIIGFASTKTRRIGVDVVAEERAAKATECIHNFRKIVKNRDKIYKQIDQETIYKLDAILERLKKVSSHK
# B1: MEI-1 (short isoform), untagged, wild type (enzyme, C. elegans, UniProt P34808 1-472, looked up)
# chain: MNGDVQSVIRGYLERAQVAKTMSDAGRWNEAGDLLRQLMTDVKSCKISASNRDEHDARNTFLRALEANLKLVQQNVRDEDDLHEAMTRQSGSPEPPADPDVWSKPSPPLPSSSKFGATKKGVGAAGPRPREISKSTSSMSTNPADVKPANPTQGILPQNSAGDSFDASAYDAYIVQAVRGTMATNTENTMSLDDIIGMHDVKQVLHEAVTLPLLVPEFFQGLRSPWKAMVLAGPPGTGKTLIARAIASESSSTFFTVSSTDLSSKWRGDSEKIVRLLFELARFYAPSIIFIDEIDTLGGQRGNSGEHEASRRVKSEFLVQMDGSQNKFDSRRVFVLAATNIPWELDEALRRRFEKRIFIPLPDIDARKKLIEKSMEGTPKSDEINYDDLAARTEGFSGADVVSLCRTAAINVLRRYDTKSLRGGELTAAMESLKAELVRNIDFEAALQAVSPSAGPDTMLKCKEWCDSFGAM
# Biological target: T1, MEI-2, wild type (from MBP-TEV-MEI-2)
# Experiment: pull-down
binder,measurement,value
B1,stoichiometry N,1 MEI-1:MEI-2
